Measurements reported in patent US10704026B2, “Ex vivo culture, proliferation and expansion of intestinal epithelium” (The Board of Trustees of the Leland Stanford Junior …, priority 2008, dated 2020).
“Also recorded” adds a separate entry of the source.

Columns and labels:
[1] = test system: intestinal explants; experiment: Growth of intestinal explant (sphere) cultures under Wnt modulation; assay type: cell-based, mouse; conditions: for explant growth: intestinal explant culture
Text: Small intestine or colon of C57Bl/6J mice is procured under sterile conditions, minced and mixed with type I collagen gel. Subsequently, these explant containing gels are poured onto transwell cell culture inserts with a collagen gel layer. Transwell cell culture inserts are available commercially from a number if resources e.g. Corning, Signaaldrich. These cell culture inserts are placed into secondary outer dishes containing HAMs F-12 with 20% FCS. Proliferation and histology of the explant is depicted in FIG. 4A-4D. Electron micrographs of the intestinal explants in FIG. 5A-5E reveal that the ultrastructure of the intestinal epithelium is preserved.
Before preparing the tissue, an inner container with a gel as bottom layer was made. The procedure described herein used Cellmatrix type I-A (Nitta Gelatin Inc.) e.g. collagen gel. The inner dish has permeable membrane bottom. Millicell culture plate inserts (Millicell-CM, Millipore Co.) or Falcon cell culture inserts (BD Co.) was used as the inner dish. 1 ml of collagen gel solution was poured into a 30-mm diameter inner dish in combination with 60 mm diameter outer dish and 2 ml of culture media. 0.3 ml collagen gel solution was poured into 10-mm diameter inner dish in combination with a 24-well outer dish and 0.5 ml of culture media.
Small or large intestine was removed from mouse (fetus, neonate, juvenile, or adult) aseptically. The removed tissue was immediately immersed in ice-cold PBS or other culture media/tissue preservative solution such as Ham's F12, MEM, etc. The small intestine or colon are opened lengthwise and washed in ice-cold PBS to remove all luminal contents. The washed tissue was minced with scissors to a size less than about 0.1 mm^3. The minced tissue was mixed in ice-cold collagen gel solution and poured onto the prepared inner dish. The inner dish was placed in an outer dish. The gel was solidified at 37° C. for 30 min. After solidification of the gel, culture media was poured into outer dish. Ham's F12 supplemented with 20% fetal calf serum and 50 μg/ml gentamicin was used as culture medium. The culture can be sustained for over a year at 37° C. in a humidified atmosphere of 5% CO2 in air. Medium was changed about every 7 days.
Three-Dimensional Explant Culture System. The mouse small and large intestine (optimally postnatal days 0-2) was opened lengthwise and washed in PBS to remove all luminal contents. A 1 cm segment was minced immediately and extensively on ice with iris scissors. The minced tissues were embedded in a three-dimensional collagen gel using a double-dish culture system. A 1 ml collagen gel solution (Nitta Gelatin Co.) was poured into a 30-mm dish (Millicell-CM, Millipore Co.), the inner dish, with a nitrocellulose bottom to form an acellular layer. Next, a 1 ml collagen gel solution containing a total of 0.1 g minced tissues was placed on the acellular layer in the dish. This inner dish was placed into a 90-mm outer dish containing 10 ml Ham's F12 supplemented with 20% FCS and 50 μg/ml gentamicin. The culture assembly was carried out for 7-365 days at 37 C in a humidified atmosphere of 5% CO2 in air, and the medium was changed every 7 days. Where appropriate, murine RSpo1-Fc, Dkk1 or DBZ (Calbiochem) were included in the outer dish medium at 500 ng/ml, 0.5-50 μg/ml and 10 μM respectively with change of medium every 1-2 days.
This culture system maintains the cultured cells embedded in the collagen gel under an air-liquid interface environment. Before preparing the tissue, an inner dish with collagen gel bottom layer should be made. The following procedure is done using Cellmatrix type I-A (Nitta Gelatin Inc.) as a premixed type I collagen gel, however, other products are able to use as an extracellular matrix, such as matrigel. The inner dish should have permeable and/or pored membrane bottom, such as a cell culture insert. […]

[2] = test system: intestinal epithelial proliferation; conditions: cited from earlier work

Row | Molecule | effect on epithelial layer of pre-established spheres ([1]; d28 pre-established small or large intestine spheres, treated additional 5d) | explant growth [1] | long-term regrowth after transient treatment ([1]; jejunal explants, 50 μg/ml for 7 days, then 35d without Dkk1) | growth when added to culture media at the time of plating ([1]; recombinant protein at plating) | intestinal proliferation in vivo [2] | explant growth ([1]; listed as R-Spondin1)
1 | Dkk1: Wnt inhibitor; murine Dkk1 bearing N-terminal HA-tag and C-terminal FLAG and 6×His tags (protein, UniProt O54908 32-272, looked up, N-terminal HA tag, C-terminal FLAG and 6xHis tags, murine Dkk1 bearing N-terminal HA-tag and C-terminal FLAG and 6×His tags) Dickkopf-related protein 1: TLNSVLINSNAIKNLPPPLGGAGGQPGSAVSVAPGVLYEGGNKYQTLDNYQPYPCAEDEECGSDEYCSSPSRGAAGVGGVQICLACRKRRKRCMRHAMCCPGNYCKNGICMPSDHSHFPRGEIEESIIENLGNDHNAAAGDGYPRRTTLTSKIYHTKGQEGSVCLRSSDCAAGLCCARHFWSKICKPVLKEGQVCTKHKRKGSHGLEIFQRCYCGEGLACRIQKDHHQASNSSRLHTCQRH | rapid degeneration of the epithelial layer | inhibited; also recorded: strong inhibition of explant growth | lack of long-term repopulation; also recorded: sufficient to ablate culture growth; also recorded: No growth of intestinal spheres was observed | dose-dependent growth inhibition | rapid cessation of intestinal epithelial proliferation and crypt loss | 
2 | RSpo1: secreted glycoprotein, Wnt agonist, Genbank Accession NP_001033722 (protein, UniProt Q2MKA7 21-263, looked up) R-spondin-1: SRGIKGKRQRRISAEGSQACAKGCELCSEVNGCLKCSPKLFILLERNDIRQVGVCLPSCPPGYFDARNPDMNKCIKCKIEHCEACFSHNFCTKCKEGLYLHKGRCYPACPEGSSAANGTMECSSPAQCEMSEWSPWGPCSKKQQLCGFRRGSEERTRRVLHAPVGDHAACSDTKETRRCTVRRVPCPEGQKRRKGGQGRRENANRNLARKESKEAGAGSRRRKGQQQQQQQGTVGPLTSAGPA |  | stimulation; also recorded: markedly stimulated; also recorded: increased growth |  |  | strongly augments intestinal proliferation in vivo; also recorded: strongly induce intestinal proliferation in vivo | promoted
